Positions count from the first letter of the chain named. Names may count otherwise.
B1: wild-type human activated protein C, P04070 43-197; P04070 212-461 (enzyme)
light: ANSFLEELRHSSLERECIEEICDFEEAKEIFQNVDDTLAFWSKHVDGDQCLVLPLEHPCASLCCGHGTCIDGIGSFSCDCRSGWEGRFCQREVSFLNCSLDNGGCTHYCLEEVGWRRCSCAPGYKLGDDLLQCHPAVKFPCGRPWKRMEKKRSHL
heavy: LIDGKMTRRGDSPWQVVLLDSKKKLACGAVLIHPSWVLTAAHCMDESKKLLVRLGEYDLRRWEKWELDLDIKEVFVHPNYSKSTTDNDIALLHLAQPATLSQTIVPICLPDSGLAERELNQAGQETLVTGWGYHSSREKEAKRNRTFVLNFIKIPVVPHNECSEVMSNMVSENMLCAGILGDRQDACEGDSGGPMVASFHGTWFLVGLVSWGEGCGLLHNYGVYTKVSRYLDWIHGHIRDKEAPQKSWAP
modifications: here or on the partner: Asn-linked carbohydrate at three sites; vitamin K-dependent gamma-carboxylation of nine glutamic acid residues within the amino-terminal 45 residues (gla-domain); one erythro-beta-hydroxy-Asp; Asn-linked carbohydrate
B2: activated human protein C derivative H10Q:S11G:Q32E:N33D:L194S, P04070 43-197; P04070 212-461 (enzyme)
light: B1 light with H10Q, S11G, Q32E, N33D
heavy: B1 heavy with L25S
modifications: here or on the partner: Asn-linked oligosaccharides; gamma-carboxy-glutamates in the gla-domain; one erythro-beta-hydroxy-Asp; Asn-linked oligosaccharide
B3: activated human protein C derivative H10Q:S11G:Q32E:N33D:L194S:T254S, P04070 43-197; P04070 212-461 (enzyme)
light: B1 light with H10Q, S11G, Q32E, N33D
heavy: B1 heavy with L25S, T85S
modifications: here or on the partner: Asn-linked oligosaccharides; gamma-carboxy-glutamates in the gla-domain; one erythro-beta-hydroxy-Asp; Asn-linked oligosaccharide
B4: activated human protein C derivative S11G:Q32E:N33D:L194S:T254S, P04070 43-197; P04070 212-461 (enzyme)
light: B1 light with S11G, Q32E, N33D
heavy: B1 heavy with L25S, T85S
modifications: here or on the partner: Asn-linked oligosaccharides; gamma-carboxy-glutamates in the gla-domain; one erythro-beta-hydroxy-Asp; Asn-linked oligosaccharide
B5: activated human protein C derivative S11G:Q32E:N33D:L194S, P04070 43-197; P04070 212-461 (enzyme)
light: B1 light with S11G, Q32E, N33D
heavy: B1 heavy with L25S
modifications: here or on the partner: Asn-linked oligosaccharides; gamma-carboxy-glutamates in the gla-domain; one erythro-beta-hydroxy-Asp; Asn-linked oligosaccharide

Columns and labels:
[1] = target: serpins of normal human plasma; test: cell-based or functional assay
serpins of rabbit plasma = test: cell-based or functional assay

Binder | Inactivation in Plasma (t1/2 Relative to wt), Human (x (relative to wt)) [1] | Inactivation in Plasma (t1/2 Relative to wt), Rabbit (x (relative to wt)) (serpins of rabbit plasma)
B1 | 1 | 1
B2 | 5.9 | 8.5
B3 | 8.5 | > 20
B4 | 13 | > 20
B5 | 5.8 | 8.5

From US20030207435A1
